Test results taken from article PMC10055720.

Target: human TERT∆TEN D788R, FLAG-tagged, co-expressed with TR (human)

human TERT TEN domain (aa 2–197), Myc-tagged (from UniProt O14746 2-197) (domain or fragment)
POT1–TPP1-stimulated processivity in the trans complementation primer extension assay, relative to WT: 64% | total telomerase activity in the trans complementation primer extension assay, relative to WT TERT∆TEN with TEN: 24 % of WT
